Data reported in IntAct's records for PubMed 19427866.

target: T1, nbr1_human NBR1 (UniProt Q14596)
T1 sequence: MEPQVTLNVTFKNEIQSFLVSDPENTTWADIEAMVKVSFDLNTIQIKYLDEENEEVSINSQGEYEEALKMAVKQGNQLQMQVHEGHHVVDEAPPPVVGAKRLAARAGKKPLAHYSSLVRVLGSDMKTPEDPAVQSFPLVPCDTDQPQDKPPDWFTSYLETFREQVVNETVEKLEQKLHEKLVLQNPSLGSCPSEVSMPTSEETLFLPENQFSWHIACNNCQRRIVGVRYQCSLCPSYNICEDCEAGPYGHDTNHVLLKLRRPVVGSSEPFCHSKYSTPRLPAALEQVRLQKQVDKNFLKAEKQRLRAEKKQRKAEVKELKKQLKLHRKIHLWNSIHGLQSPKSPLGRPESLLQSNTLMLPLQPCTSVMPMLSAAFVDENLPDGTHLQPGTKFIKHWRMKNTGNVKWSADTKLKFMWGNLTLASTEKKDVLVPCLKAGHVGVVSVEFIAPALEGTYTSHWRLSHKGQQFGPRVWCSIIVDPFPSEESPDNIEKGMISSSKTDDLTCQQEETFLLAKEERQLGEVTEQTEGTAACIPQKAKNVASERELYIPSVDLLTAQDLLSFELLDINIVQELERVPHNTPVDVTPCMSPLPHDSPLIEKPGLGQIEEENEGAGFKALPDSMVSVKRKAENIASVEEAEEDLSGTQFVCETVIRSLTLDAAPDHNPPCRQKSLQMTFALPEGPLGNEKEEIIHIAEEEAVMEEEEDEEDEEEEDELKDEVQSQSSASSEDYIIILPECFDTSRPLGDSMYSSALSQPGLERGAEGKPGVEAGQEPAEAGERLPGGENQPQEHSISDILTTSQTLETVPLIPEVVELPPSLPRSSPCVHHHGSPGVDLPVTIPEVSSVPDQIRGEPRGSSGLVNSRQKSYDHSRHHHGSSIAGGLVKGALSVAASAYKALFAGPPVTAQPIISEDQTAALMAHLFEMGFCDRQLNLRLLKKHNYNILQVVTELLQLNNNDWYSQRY

effect of a mutation on the interaction	Substance
decreasing interaction	Polyubiquitin-C (Homo sapiens) (from UniProt P0CG48) K33R
decreasing interaction	Polyubiquitin-C (Homo sapiens) (from UniProt P0CG48) K48R
decreasing interaction	Polyubiquitin-C (Homo sapiens) (from UniProt P0CG48) K63R
